Laboratory results taken from US20100297662A1.

Assays:
[1] = target: amylospheroid 42 (Homo sapiens (Human)) (UniProt P05067); assay: SPR, ratio of Kd values (42 fibril against 42ASPD)
[2] = target: amylospheroid 42 (Homo sapiens (Human)) (UniProt P05067); assay: SPR, ratio of Kd values (40Aβ against 42ASPD)
[3] = target: Aβ fibril (42 fibril) prepared from 42Aβ (Homo sapiens (Human)) (UniProt P05067); assay: SPR (BIAcore), antigen on CM5 chip, antibody in solution
[4] = target: amylospheroid 42 (Homo sapiens (Human)) (UniProt P05067); assay: as above
[5] = target: monomeric amyloid β40-protein (Aβ1-40); assay: as above
monomeric amyloid β40-protein (Aβ1-40), sequence (peptide, as listed by the source): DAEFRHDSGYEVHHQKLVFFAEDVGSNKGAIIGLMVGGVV

[6] = target: commercially available amyloid precursor protein sAPPα (Sigma) (UniProt P05067); assay: competitive ELISA: antibody pre-reacted with sAPPα in solution, then ASPD solid-phase plate
[7] = target: Aβ fibril prepared from amyloid β40 (Homo sapiens (Human)) (UniProt P05067); assay: SPR (BIAcore 3000), antigen on CM5 chip, antibody in solution
[8] = target: amylospheroid 42 (Homo sapiens (Human)) (UniProt P05067); assay: as above
[9] = target: monomeric amyloid β40-protein (Aβ1-40); assay: as above
[10] = target: monomeric amyloid β42-protein (Aβ1-42); assay: as above
monomeric amyloid β42-protein (Aβ1-42), sequence (peptide, as listed by the source): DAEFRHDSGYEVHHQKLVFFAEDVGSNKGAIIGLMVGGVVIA

[11] = target: ASPD (amylospheroid; Aβ species not stated); assay: competitive ELISA: antibody pre-reacted with ASPD in solution, then ASPD solid-phase plate

Substance | fold higher affinity with ASPD than with amyloid fibril [1] | fold higher affinity with ASPD than with amyloid β-monomer [2] | Kd [3] | Kd [4] | Kd [5] | IC50 [6] | Kd [7] | Kd [8] | Kd [9] | Kd [10] | IC50 [11]
anti-Aβ antibody 3D6 (US 20030165496 A1), produced as a mouse IgG2b/κ molecule | 2 times | 34 times | 0.231 nM | 0.115 nM | 3.93 nM | – | – | – | – | – | –
commercially available anti-amyloid β antibody 6E10 (Senetek) | – | – | – | – | – | 16.1 nM | 1.33 nM | 18.3 nM | 37.3 nM | 17.2 nM | 3.7 nM
